Data on five molecules can be found in paper PMC8280269, “A novel mycothiol-dependent thiol–disulfide reductase in Corynebacterium glutamicum involving oxidative stress resistance” (3 Biotech, 2021).

The target in data set [1] is T1, NCgl2478 (Corynebacterium glutamicum, UniProt Q8NMK6, C24S).
T1 construct: gene Cgl2567; full-length, N-terminal His6 from pET28a, E. coli BL21(DE3); tag cut with enterokinase for activity assays
T1 sequence (Q8NMK6 1-245 C24S): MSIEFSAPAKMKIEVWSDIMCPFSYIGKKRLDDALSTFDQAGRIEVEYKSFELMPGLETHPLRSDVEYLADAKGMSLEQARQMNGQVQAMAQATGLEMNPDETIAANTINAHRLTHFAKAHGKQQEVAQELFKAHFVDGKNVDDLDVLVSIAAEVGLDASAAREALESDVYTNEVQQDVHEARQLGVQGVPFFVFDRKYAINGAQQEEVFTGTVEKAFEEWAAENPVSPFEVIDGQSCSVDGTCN
Description: NBD-Cl labelling and DTNB thiol count after H2O2 with MSH. Type of data set: binding. As to conditions: covalent; mixed disulfide at Cys21 formed from the H2O2-oxidised sulfenic acid.

Data set [2] concerns Cys24. Description: UV-vis. As to conditions: 10 °C; poly-buffer: 10 mM sodium acetate, 10 mM sodium phosphate, 10 mM sodium borate, 10 mM sodium citrate, starting pH 9.4, titrated with 100 mM HCl; 20 μM protein; reduced protein, referenced to the oxidized protein (Cys mutants oxidized with tenfold excess H2O2); no ligand.
Data set [3] deals with Cys21. Description: UV-vis. As to conditions: 10 °C; poly-buffer: 10 mM sodium acetate, 10 mM sodium phosphate, 10 mM sodium borate, 10 mM sodium citrate, starting pH 9.4, titrated with 100 mM HCl; 20 μM protein; reduced protein, referenced to the oxidized protein (Cys mutants oxidized with tenfold excess H2O2); no ligand.
Substrate in data set [4]: CC(=O)N[C@@H](CSSCCO)C(=O)N[C@H]1[C@@H](O[C@@H]2[C@H](O)[C@H](O)[C@@H](O)[C@H](O)[C@H]2O)O[C@H](CO)[C@@H](O)[C@@H]1O
Put plainly: purified protein. Type of data set: biochemical, Corynebacterium glutamicum. As to conditions: 500 μM MSH, 5 μM Mtr, 250 μM NADPH, 50 mM potassium phosphate pH 7.6, 25 °C, substrate formed in situ from HED and MSH.

For `CC(=O)N[C@@H](CS)C(=O)NC1[C@@H](O[C@@H]2[C@H](O)[C@H](O)[C@@H](O)[C@H](O)[C@H]2O)O[C@H](CO)[C@@H](O)[C@@H]1O` (stereo partly drawn) [MSH, 1D-myo-inosityl-2-[N-acetyl-L-cysteinyl] amido-2-deoxy-α-D-glucopyranoside], the “NBD-Cl labelling and DTNB thiol count after H2O2 with MSH” value in data set [1] was “MSH reacted with NCgl2478:C24S–SOH to form NCgl2478:C24S–SSM”.
What is called pKa is the pH at which an ionisable group is half protonated. A higher pKa goes with a group that holds its proton tightly. As to “NCgl2478 (DsbA-like mycoredoxin / mycothiol-dependent thiol-disulfide reductase, annotated dithiol-disulfide isomerase DsbA) (Corynebacterium glutamicum (RES167, derived from ATCC 13032))”, the pKa in data set [2] is given as 8.09; in data set [3], “less than 6”.

B1: Mrx1 (Corynebacterium glutamicum ATCC 13032) (protein)
chain: MSNVTIYATDWCPYCRSLLKGLDGQEYDLIDVDQDEEAGEWVKSVNDGNRIVPTVRYSDGTHATNPLAAEVIAKIEALA
notes: pET28a-mrx1, N-terminal His6, E. coli BL21(DE3); tag cut for activity assays
In general, Km refers to the concentration of substrate that gives half-maximal velocity. Usually kcat stands for the maximal rate divided by the concentration of active sites. For B1, in data set [4], the Michaelis constant (Km) came to 540 ± 110 µM and the turnover number (kcat) came to 103.81 ± 3.14 s⁻¹.

B2: NCgl2478 (Corynebacterium glutamicum ATCC 13032) (protein)
chain: MSIEFSAPAKMKIEVWSDIMCPFCYIGKKRLDDALSTFDQAGRIEVEYKSFELMPGLETHPLRSDVEYLADAKGMSLEQARQMNGQVQAMAQATGLEMNPDETIAANTINAHRLTHFAKAHGKQQEVAQELFKAHFVDGKNVDDLDVLVSIAAEVGLDASAAREALESDVYTNEVQQDVHEARQLGVQGVPFFVFDRKYAINGAQQEEVFTGTVEKAFEEWAAENPVSPFEVIDGQSCSVDGTCN
notes: full-length, N-terminal His6 from pET28a, E. coli BL21(DE3); tag cut with enterokinase for activity assays
On to B2, for which, in data set [4], the Km amounted to 510 ± 50 µM and the kcat turned out to be 8.55 ± 0.19 s⁻¹.

B3: NCgl2478 (Corynebacterium glutamicum ATCC 13032; C24S) (protein)
chain: MSIEFSAPAKMKIEVWSDIMCPFSYIGKKRLDDALSTFDQAGRIEVEYKSFELMPGLETHPLRSDVEYLADAKGMSLEQARQMNGQVQAMAQATGLEMNPDETIAANTINAHRLTHFAKAHGKQQEVAQELFKAHFVDGKNVDDLDVLVSIAAEVGLDASAAREALESDVYTNEVQQDVHEARQLGVQGVPFFVFDRKYAINGAQQEEVFTGTVEKAFEEWAAENPVSPFEVIDGQSCSVDGTCN
notes: as for B2
Consider B3, for which, in data set [4], the Km was determined as 460 ± 50 µM and the kcat turned out to be 11.37 ± 0.31 s⁻¹.
